# T1: nuclear SREBP-2 (nSREBP-2) (rat, UniProt Q3T1I5 1-476)
# T1 sequence: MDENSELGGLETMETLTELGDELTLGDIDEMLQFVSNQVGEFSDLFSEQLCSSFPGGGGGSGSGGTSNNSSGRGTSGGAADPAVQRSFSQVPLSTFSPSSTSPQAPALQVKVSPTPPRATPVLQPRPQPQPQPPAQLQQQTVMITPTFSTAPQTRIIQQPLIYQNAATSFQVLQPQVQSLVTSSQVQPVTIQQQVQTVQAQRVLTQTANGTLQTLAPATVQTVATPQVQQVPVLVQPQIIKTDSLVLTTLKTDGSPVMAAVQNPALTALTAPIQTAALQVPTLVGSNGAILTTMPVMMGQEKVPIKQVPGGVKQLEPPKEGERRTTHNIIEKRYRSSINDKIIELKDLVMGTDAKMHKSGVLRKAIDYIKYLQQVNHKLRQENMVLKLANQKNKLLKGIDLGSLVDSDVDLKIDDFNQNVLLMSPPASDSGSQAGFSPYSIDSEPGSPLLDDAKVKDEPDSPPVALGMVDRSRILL
# T2: nuclear SREBP-1c (nSREBP-1c) (rat, UniProt P56720-1 1-456)
# T2 sequence: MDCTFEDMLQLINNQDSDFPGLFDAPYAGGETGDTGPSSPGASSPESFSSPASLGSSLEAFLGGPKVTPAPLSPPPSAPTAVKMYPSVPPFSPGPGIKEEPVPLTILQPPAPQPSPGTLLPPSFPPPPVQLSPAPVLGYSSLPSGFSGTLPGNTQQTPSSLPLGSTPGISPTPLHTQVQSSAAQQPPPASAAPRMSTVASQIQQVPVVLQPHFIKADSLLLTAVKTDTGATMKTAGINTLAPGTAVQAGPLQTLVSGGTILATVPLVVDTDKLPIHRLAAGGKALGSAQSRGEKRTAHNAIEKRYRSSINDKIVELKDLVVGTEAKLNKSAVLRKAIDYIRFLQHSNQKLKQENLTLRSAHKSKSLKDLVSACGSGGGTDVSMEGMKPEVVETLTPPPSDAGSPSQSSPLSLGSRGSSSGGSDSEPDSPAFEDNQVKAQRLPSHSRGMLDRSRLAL
# B1: rTPO VI mut3 (dsDNA)
# DNA 1: AGCTCAGGCCTCTCCTCAGACTAATCCTCCCAAGT
# DNA 2: TCGAACTTGGGAGGATTAGTCTGAGGAGAGGCCTG
# B2: rTPO III mut4 (dsDNA)
# DNA 1: AGCTGATAAGATTCAAGTCAGCAGAATACT
# DNA 2: TCGAAGTATTCTGCTGACTTGAATCTTATC
# B3: rTPO VI (dsDNA)
# DNA 1: AGCTCAGGCCTCTCCTCAGGTGGGTCCTCCCAAGT
# DNA 2: TCGAACTTGGGAGGACCCACCTGAGGAGAGGCCTG
# B4: rTPO III mut3 (dsDNA)
# DNA 1: AGCTGATAATCAGATTCGAAGCAGAATACT
# DNA 2: TCGAAGTATTCTGCTTCGAATCTGATTATC
# B5: rTPO V (dsDNA)
# DNA 1: AGCTGTGGGATGTACCATAAATACCCAGG
# DNA 2: TCGACCTGGGTATTTATGGTACATCCCAC
# B6: rTPO VI mut6 (dsDNA)
# DNA 1: AGCTTGTAACTCTCCTCAGGTGGGTCCTCCCAAGT
# DNA 2: TCGAACTTGGGAGGACCCACCTGAGGAGAGTTACA
# B7: rTPO III mut1 (dsDNA)
# DNA 1: AGCTGATAATCAGAAAGTCAGCAGTTCTAG
# DNA 2: TCGACTAGAACTGCTGACTTTCTGATTATC
# B8: rTPO III mut5 (dsDNA)
# DNA 1: AGCTTCGTTTCAGAAAGTCAGCAGAATACT
# DNA 2: TCGAAGTATTCTGCTGACTTTCTGAAACGA
# B9: rTPO II (dsDNA)
# DNA 1: AGCTTTGCAGTGGGGAAGAGATAA
# DNA 2: TCGATTATCTCTTCCCCACTGCAA
# B10: rTPO III (dsDNA)
# DNA 1: AGCTGATAATCAGAAAGTCAGCAGAATACT
# DNA 2: TCGAAGTATTCTGCTGACTTTCTGATTATC
# B11: rTPO IVmut (dsDNA)
# DNA 1: AGCTATACTGTGTTACTTACCATA
# DNA 2: TCGATATGGTAAGTAACACAGTAT
# B12: rTPO VI mut2 (dsDNA)
# DNA 1: AGCTCAGGCCTCTCCTCAGGTGGGGTTGACCAAGT
# DNA 2: TCGAACTTGGTCAACCCCACCTGAGGAGAGGCCTG
# B13: rTPO VI mut4 (dsDNA)
# DNA 1: AGCTCAGGCCTCTCAGATAGTGGGTCCTCCCAAGT
# DNA 2: TCGAACTTGGGAGGACCCACTATCTGAGAGGCCTG
# B14: rTPO I (dsDNA)
# DNA 1: GATCTCTGGGGTTGCAGTGGGGAAGA
# DNA 2: TCGATCTTCCCCACTGCAACCCCAGA
# B15: rTPO IV (dsDNA)
# DNA 1: AGCTATACTGTGGGATGTACCATA
# DNA 2: TCGATATGGTACATCCCACAGTAT
# B16: rTPO III mut2 (dsDNA)
# DNA 1: AGCTGATAATCAGAAAGTCGTATTAATACT
# DNA 2: TCGAAGTATTAATACGACTTTCTGATTATC
# B17: rTPO VI mut1 (dsDNA)
# DNA 1: AGCTCAGGCCTCTCCTCAGGTGGGTCCTCATGGCT
# DNA 2: TCGAAGCCATGAGGACCCACCTGAGGAGAGGCCTG
# B18: rTPO VI mut5 (dsDNA)
# DNA 1: AGCTCAGGCGGAAACTCAGGTGGGTCCTCCCAAGT
# DNA 2: TCGAACTTGGGAGGACCCACCTGAGTTTCCGCCTG
# Columns and labels:
# [1] = biological target: T1, nuclear SREBP-2 (nSREBP-2); assay: EMSA; EMSA with DIG-labeled annealed oligonucleotides (Roche DIG Gel Shift Kit, 2nd Generation) and TNT T7 in vitro-translated proteins; buffer, salt, pH and temperature not stated (ref 19); details: protein: ivt, chain copies: 2, label: DIG end-label
# [2] = biological target: T2, nuclear SREBP-1c (nSREBP-1c); assay: as above; details: protein: ivt, chain copies: 2, label: DIG end-label
# [3] = 5' overhangs 4 nt (AGCT / TCGA)
# [4] = 5' overhangs 4 nt (GATC / TCGA)
Binder,"binding result [1, 3]","binding result [2, 3]","binding result [1, 4]","binding result [2, 4]"
B1,binds,binds,,
B2,binds,binds,,
B3,binds,binds,,
B4,no binding,no binding,,
B5,no binding,no binding,,
B6,binds,binds,,
B7,binds,binds,,
B8,binds,binds,,
B9,no binding,no binding,,
B10,binds,binds,,
B11,,no binding,,
B12,binds,binds,,
B13,no binding,no binding,,
B14,,,no binding,no binding
B15,no binding,binds,,
B16,no binding,no binding,,
B17,binds,binds,,
B18,binds,binds,,

# Reference: PMC3953333, “Sterol Regulatory Element-Binding Proteins Are Regulators of the Rat Thyroid Peroxidase Gene in Thyroid Cells”
